Key:
[1] = test system: fibronectin domains 8-11; experiment: Adhesion of U937 cells to the cell-binding domain of fibronectin in the presence of sPLA2-IIA; type: cell-based, human; details: increasing concentrations of sPLA2-IIA, 1 h, 37° C.
Description: (§1) FIG. 5. sPLA2-IIA binding to integrin α4β1. a) Cells expressing recombinant α4β1 adhered to wt sPLA2-IIA better than cells expressing other recombinant integrins. We used transfected K562 cells clonally express different human integrins for adhesion assays. Low background adhesion to BSA was subtracted. […] Wells of 96-well microtiter plate were coated with VCAM-1 and FN-GST, and incubated with U937 cells (1×10^4 cells/plate) in the presence of the increasing concentrations of sPLA2-IIA for 1 h at 37° C. Adherent cells were quantified using endogenous phosphatase after gently rinsing the well to remove unbound cells. Data is shown as means+/−SEM of triplicate experiments. *P=0.0101 and **P<0.0001 by t-test. c) Amino acid sequence in the α4 subunit that is critical for VCAM-1 and CS-1 binding is also critical for sPLA2-IIA binding. CHO cells that clonally express wt or mutant α4 (Irie, A. et al., Embo J, 14(22): 5550-5556 (1995)) were used for adhesion assays. Data is shown as means+/−SEM of triplicate experiments. Similar results were obtained using K562 cells expressing α4 mutants (not shown).
(§2) Other methods We performed docking simulation of interaction between sPLA2-IIA and integrin αvβ3 using the AutoDock3 as previously described (Mori, S. et al., J Biol Chem, in press (2008)). […]

[2] = target: T1, integrin α4β1 (Homo sapiens, UniProt P05556+P13612); experiment: Adhesion of α4-K562 cells (recombinant α4β1) to immobilized sPLA2-IIA; type: cell-based; details: compared with mock-transfected K562 cells
T1 construct: K562 cells have endogenous α5β1; expressed in transfected cells; host or cells: K562
Description: as §1, §2

[3] = test system: mock-transfected K562 cells; experiment: Proliferation of mock-transfected K562 cells (MTS assay); type: cell-based, human; details: serum-starved 48 h, stimulated 48 h
Description: (§3) Cells were serum-starved for 48 h and stimulated with sPLA2-IIA for 48 h. Cell proliferation was determined by MTS assays. Data is shown as means+/−SEM of triplicate experiments. α4- and αvβ3-K562 cells proliferated faster than mock-K562 cells. […] Serum-starved cells were stimulated with wt or mutant sPLA2-IIA (0.5 μg/ml) for 48 h. Data is shown as means+/−SEM of triplicate experiments. α4-K562 and αvβ3-K562 cells grew faster than mock K562 cells with wt and H47Q sPLA2-IIA (*P<0.05 by t-test).
(§4) Cell proliferation and MAP kinase activation K562 cells and human monocytic lymphoma U937 cells were maintained in RPM11640 medium supplemented with 10% FCS. Cells were plated in 96-well plates (1×10^4 cells/well), and serum-starved for 48 h at 37° C. in 5% CO2 atmosphere. Cells were then treated with or without sPLA2-IIA in medium without serum for 48 h. Cell proliferation was determined by MTS assays using the Aqueous Cell Proliferation Assay Kit (Promega). For MAP kinase activation assays, cells were serum starved in RPMI1640 medium supplemented with 0.4% FCS for 24 h, and stimulated with Wt and mutant sPLA2-IIA (0.5 μg/ml) for 10 min at 37° C. ERK1/2 activation was measured as described (Mori, S. et al., J Biol Chem, in press (2008)).

[4] = test system: U937 human monocytic lymphoma cells; experiment: Proliferation of U937 cells (MTS assay); type: cell-based; details: serum-starved 48 h, treated 48 h
Description: (§5) U937 cells (αvβ3+, α4β1+) were plated in wells of 96-well plates (10,000 cells/well), and serum-starved for 48 h. After treatment with wt or mutant sPLA2-IIA for 48 h, we measured cell proliferation by MTS assays. […] U937 cells were serum-starved for 24 h, and stimulated with wt and mutant sPLA2-IIA (0.5 μg/ml) for 10 min at 37° C. Cell lysates were analyzed by western blotting with anti-phospho ERK1/2 or anti-ERK1/2 antibodies. The blot is representative of three independent experiments.
as §4

[5] = test system: α4-K562 cells; experiment: Proliferation of α4-K562 cells (MTS assay); type: cell-based, human; details: serum-starved 48 h, stimulated 48 h
Description: as §3, §4

[6] = test system: mutant α4 subunit (Tyr-189 and Gly-190 to Ala); experiment: Adhesion of CHO cells expressing wt or mutant α4 to sPLA2-IIA; type: cell-based
Description: as §1, §2

[7] = target: T2, integrin αvβ3 (Homo sapiens, UniProt P05106+P06756); experiment: Surface plasmon resonance study of sPLA2-IIA binding to immobilized soluble integrin αvβ3; details: SPR, soluble αvβ3 immobilized on sensor chip, 1 mM Mn2+; listed as human sPLA2-IIA
T2 construct: Recombinant soluble αvβ3 was synthesized as previously described; made in house
Description: Surface plasmon resonance study Recombinant soluble integrin αvβ3 was immobilized to Biacore Sensor chip CM5 (Biacore, Piscataway, N.J.) by the standard amine coupling method. Two-fold serial diluted sPLA2-IIA and its mutants R74E/R100E (ranging from 2 nM to 500 pM) and H47Q (ranging from 4 nM to 1 nM) in running buffer HBS-P buffer containing 1 mM of Mn^2+ were injected for 3 min at the flow rate of 50 μL/min. Then the sensor chip was washed with the running buffer alone at the same flow rate for another 5 min (the dissociation phase). Two consecutive one-minute injections of 0.5 M, pH 8 EDTA solution at the same flow rate were used to regenerate the chip for another cycle of injection. The resonance unit elicited from the reference flow cell was subtracted from the resonance unit elicited from the integrin flow cell to eliminate the non-specific protein-flow cell interaction and the bulk refractive index effect. The recorded binding curves were fitted with the “1:1 binding with drifting baseline model” by using the Biaevaluation Version 4.1.

[8] = test system: ERK1/2; experiment: MAP kinase (ERK1/2) activation in U937 cells, western blotting; type: cell-based, human; details: 0.5 μg/ml, 10 min, 37° C.
Description: as §5, §4

[9] = target: T3, soluble integrin αvβ3 (Homo sapiens, UniProt P05106+P06756); experiment: Binding of soluble αvβ3 to immobilized sPLA2-IIA (ELISA-type assay); details: immobilized protein, 20 μg/ml coating
T3 construct: Recombinant soluble αvβ3 was synthesized as previously described; made in house
Description: Binding of soluble αvβ3 to immobilized sPLA2-IIA sPLA2-IIA was immobilized to wells of 96 well microtiter plates and the remaining protein-binding sites were blocked by BSA as described (Mori, S. et al., J Biol Chem, 283:18066-18075 (2008)). Soluble recombinant αvβ3 at 5 μg/ml in Hepes-Tyrodes buffer supplemented with 1 mM MnCl2 was added to the well and incubated for 2 h. Bound αvβ3 was measured using anti-integrin β3 (mAb AV-10) followed by HRP-conjugated goat anti-mouse IgG and peroxidase substrates.

T1 sequence (P13612 34-1032): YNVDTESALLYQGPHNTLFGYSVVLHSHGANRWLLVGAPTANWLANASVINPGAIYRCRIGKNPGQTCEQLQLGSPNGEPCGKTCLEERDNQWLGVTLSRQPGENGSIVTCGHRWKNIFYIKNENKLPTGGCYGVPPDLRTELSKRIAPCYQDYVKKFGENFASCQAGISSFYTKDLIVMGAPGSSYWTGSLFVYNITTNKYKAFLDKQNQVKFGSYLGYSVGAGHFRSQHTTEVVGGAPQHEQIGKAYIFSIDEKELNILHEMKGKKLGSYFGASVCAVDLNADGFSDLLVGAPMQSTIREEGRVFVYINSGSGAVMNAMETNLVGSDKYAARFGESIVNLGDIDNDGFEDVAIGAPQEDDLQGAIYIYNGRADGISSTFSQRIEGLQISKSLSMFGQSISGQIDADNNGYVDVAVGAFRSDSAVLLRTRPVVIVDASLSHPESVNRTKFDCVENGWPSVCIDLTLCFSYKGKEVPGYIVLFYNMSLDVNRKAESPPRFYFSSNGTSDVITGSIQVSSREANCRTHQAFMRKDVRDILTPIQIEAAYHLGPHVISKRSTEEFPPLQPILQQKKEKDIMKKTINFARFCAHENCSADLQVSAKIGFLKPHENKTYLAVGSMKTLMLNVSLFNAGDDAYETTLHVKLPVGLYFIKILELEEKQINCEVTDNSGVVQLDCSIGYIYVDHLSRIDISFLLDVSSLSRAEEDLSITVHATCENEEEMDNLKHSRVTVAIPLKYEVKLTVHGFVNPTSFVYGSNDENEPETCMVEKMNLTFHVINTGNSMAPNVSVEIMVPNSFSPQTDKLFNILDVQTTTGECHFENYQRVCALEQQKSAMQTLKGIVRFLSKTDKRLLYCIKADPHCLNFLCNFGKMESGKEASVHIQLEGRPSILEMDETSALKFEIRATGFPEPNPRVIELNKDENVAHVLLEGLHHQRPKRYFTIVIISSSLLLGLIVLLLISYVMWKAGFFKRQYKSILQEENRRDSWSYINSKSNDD
T1 sequence (P05556 21-798): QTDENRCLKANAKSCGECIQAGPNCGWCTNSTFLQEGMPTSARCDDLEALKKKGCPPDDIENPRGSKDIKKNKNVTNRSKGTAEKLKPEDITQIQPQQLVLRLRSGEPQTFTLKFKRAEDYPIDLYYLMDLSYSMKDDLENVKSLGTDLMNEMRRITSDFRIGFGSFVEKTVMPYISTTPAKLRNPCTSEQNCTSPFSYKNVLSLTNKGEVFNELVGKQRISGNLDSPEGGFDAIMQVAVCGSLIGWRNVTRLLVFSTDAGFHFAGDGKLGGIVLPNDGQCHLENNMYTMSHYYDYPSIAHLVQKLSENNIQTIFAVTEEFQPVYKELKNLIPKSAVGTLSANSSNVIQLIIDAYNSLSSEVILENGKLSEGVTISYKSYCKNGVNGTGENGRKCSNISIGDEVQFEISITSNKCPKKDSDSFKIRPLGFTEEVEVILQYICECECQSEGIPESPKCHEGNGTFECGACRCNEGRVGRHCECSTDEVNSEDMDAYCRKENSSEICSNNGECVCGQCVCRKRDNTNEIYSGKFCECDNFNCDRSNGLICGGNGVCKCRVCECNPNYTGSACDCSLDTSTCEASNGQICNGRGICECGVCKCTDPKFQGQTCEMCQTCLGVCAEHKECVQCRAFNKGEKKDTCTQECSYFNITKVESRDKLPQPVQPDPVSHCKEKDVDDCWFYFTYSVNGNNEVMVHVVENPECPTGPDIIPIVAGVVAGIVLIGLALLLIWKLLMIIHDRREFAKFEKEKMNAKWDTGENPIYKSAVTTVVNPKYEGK
T2 sequence (P06756 31-992 limits assumed): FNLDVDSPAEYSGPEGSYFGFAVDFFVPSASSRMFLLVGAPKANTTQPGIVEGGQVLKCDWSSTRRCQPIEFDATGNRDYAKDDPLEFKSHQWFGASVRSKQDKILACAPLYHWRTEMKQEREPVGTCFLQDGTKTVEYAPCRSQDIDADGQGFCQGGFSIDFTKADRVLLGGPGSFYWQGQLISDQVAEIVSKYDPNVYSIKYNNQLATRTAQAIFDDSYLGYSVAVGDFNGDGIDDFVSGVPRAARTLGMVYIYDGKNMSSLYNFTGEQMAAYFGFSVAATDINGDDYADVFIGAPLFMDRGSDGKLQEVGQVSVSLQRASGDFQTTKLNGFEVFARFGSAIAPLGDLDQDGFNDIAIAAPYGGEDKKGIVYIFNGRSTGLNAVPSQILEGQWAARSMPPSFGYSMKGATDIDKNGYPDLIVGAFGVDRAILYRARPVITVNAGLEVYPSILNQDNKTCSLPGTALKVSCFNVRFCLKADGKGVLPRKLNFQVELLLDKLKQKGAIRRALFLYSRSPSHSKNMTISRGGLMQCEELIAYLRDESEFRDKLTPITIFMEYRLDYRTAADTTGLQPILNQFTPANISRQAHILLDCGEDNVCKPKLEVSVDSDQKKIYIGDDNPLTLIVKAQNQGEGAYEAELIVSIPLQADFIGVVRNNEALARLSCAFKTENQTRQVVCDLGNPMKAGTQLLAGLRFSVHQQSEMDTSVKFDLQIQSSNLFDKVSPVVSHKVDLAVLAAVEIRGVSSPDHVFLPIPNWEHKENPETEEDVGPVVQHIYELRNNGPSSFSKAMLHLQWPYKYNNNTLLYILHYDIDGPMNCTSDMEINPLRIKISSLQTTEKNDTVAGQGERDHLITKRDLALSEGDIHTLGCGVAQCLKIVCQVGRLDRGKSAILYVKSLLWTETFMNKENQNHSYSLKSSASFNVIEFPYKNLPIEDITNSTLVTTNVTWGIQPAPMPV
T2 sequence (P05106 27-718 limits assumed): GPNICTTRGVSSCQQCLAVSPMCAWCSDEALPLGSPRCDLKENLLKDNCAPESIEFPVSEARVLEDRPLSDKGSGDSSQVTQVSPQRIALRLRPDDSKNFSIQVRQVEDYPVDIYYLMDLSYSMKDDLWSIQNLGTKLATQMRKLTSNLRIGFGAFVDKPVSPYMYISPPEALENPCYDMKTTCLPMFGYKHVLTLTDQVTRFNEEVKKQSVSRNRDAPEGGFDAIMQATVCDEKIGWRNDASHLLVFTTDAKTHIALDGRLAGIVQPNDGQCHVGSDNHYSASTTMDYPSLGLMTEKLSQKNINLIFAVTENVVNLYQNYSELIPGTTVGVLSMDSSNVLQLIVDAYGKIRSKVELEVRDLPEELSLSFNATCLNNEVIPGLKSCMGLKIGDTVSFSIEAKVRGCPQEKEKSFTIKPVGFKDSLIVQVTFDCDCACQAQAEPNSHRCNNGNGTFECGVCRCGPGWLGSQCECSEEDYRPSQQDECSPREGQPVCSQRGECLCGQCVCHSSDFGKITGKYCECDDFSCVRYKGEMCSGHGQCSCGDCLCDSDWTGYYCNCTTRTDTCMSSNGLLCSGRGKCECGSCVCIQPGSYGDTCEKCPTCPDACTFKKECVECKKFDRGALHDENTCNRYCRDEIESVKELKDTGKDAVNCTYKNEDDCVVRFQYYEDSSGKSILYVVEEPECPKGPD
T3 sequence (P06756 31-992 limits assumed): as the sequence (P06756 31-992 limits assumed) above
T3 sequence (P05106 27-718 limits assumed): as the sequence (P05106 27-718 limits assumed) above

B1: wt sPLA2-IIA: Secretory phospholipase A2 group IIA, wild type, recombinant from bacteria BL21, refolded (protein)
chain: NLVNFHRMIKLTTGKEAALSYGFYGCHCGVGGRGSPKDATDRCCVTHDCCYKRLEKRGCGTKFLSYKFSNSGSRITCAKQDSCRSQLCECDKAAATCFARNKTTYNKKYQYYSNKHCRGSTPRC
modifications: left off: small tags and cut ends
[1]
  cell adhesion to fibronectin domains 8-11: did not suppress cell adhesion
[2]
  adhesion of α4-K562 cells to immobilized wt sPLA2-IIA: better than mock-transfected K562 cells
[3]
  proliferation of mock-transfected K562 cells: did not induce proliferation
[4]
  proliferation of monocytic U937 cells: induced robust proliferation
[5]
  proliferation of α4-K562 cells: induced proliferation
[6]
  binding of α4 mutants (Tyr-189 and Gly-190 to Ala) to sPLA2-IIA: blocked binding
[7]
  Kd: 200 nM
[8]
  ERK1/2 activation in U937 cells: induced
[9]
  binding to soluble αvβ3: bound

From patent publication US20090092595A1, “Suppression of sPLA2-integrin binding for treating an inflammatory condition” (REGENTS OF THE UNIVERSITY OF CALIFORNIA, priority 2007, published 2009)
